Blank lines part the entries; values can stand above or below the molecule they belong to.
How the values were obtained:
K562 cells = experiment: PE-labelled TCR tetramer staining of serum-depleted K562 cells incubated with apolipoproteins or competing mAb; assay type: cell-based, human; settings: serum-depleted K562, apolipoprotein preparations 100 μg/ml
Experimental: FIG. 3: Vγ9Vδ2 TCR binding to tumor cells and apoA-I. PE-labeled tetrameric TCRs from clone G115 and clone 73R9 were used to stain tumor cell lines and assess the influence of apolipoproteins on their tumor recognition. Shaded histograms: concentration-matched streptavidin-PE alone. Line histograms: binding of the indicated PE-labelled tetrameric TCR. (a) Cell lines were cultured in 10% fcs before staining with tetramers. (b) K562 cells were serum-depleted, incubated with 10% human serum or the indicated apolipoprotein preparations (100 μg/ml) and stained with G115 or 73R9 TCR tetramers. (c) Serum-depleted K562 cells were incubated with 100 μg/ml of HDL hApoA-I (left histogram) or hM5L (right histogram) and labeled with G115 TCR tetramers in the presence of the indicated competing mAb (20 μg/ml). […] Data are representative of three experiments.
Immunofluorescence stainings were performed in PBS containing 1% BSA and devoid of serum using FITC-conjugated goat F(ab)′2 anti-mouse Ig antibody (Caltag) as the second step reagent. Irrelevant isotype-matched control antibodies were used as negative controls. In apolipoprotein binding experiments, serum-deprived cells were incubated with serum or purified protein preparations in PBS containing 1% BSA, at room temperature, 30 minutes prior to antibody staining. 7H10 (anti-α-ATP synthase) and 3D5 (anti-β-ATP synthase) and 7F9 (anti-γ-ATP synthase) are from Molecular Probes. 4H1 (anti-human apoA-I) (Collet et al., 1997) was obtained from Dr Y. Marcel (Ottawa).
The G115 (Vγ9Vδ2) (3) and 73R9 (Vγ8Vδ3) extracellular γ and δ chains (the latter carrying a short 3′ Biotin tag) were expressed in Escherichia coli, then refolded together by rapid dilution in 1 L of 1 M L-arginine, 0.1 M Tris-HCl, pH 8.0 and 0.2 mM reduced/0.2 mM oxidized glutathione. After dialysis against 10 mM Tris-HCl pH 8.0, concentration by cation exchange chromatography at pH 5.5, and purification by size exclusion chromatography at pH 8.0, the refolded protein was biotinylated for 4 h at 30° C. with 6 μg/ml BirA and excess of free biotin was removed by dialysis against 10 mM Tris-HCl pH 8.0, 150 mM NaCl. Tetramers of γδ TCR heterodimers were obtained by mixing the biotinylated TCR with phycoerythrin-labeled streptavidin (Biosource) at a molar ratio of 10:1. For staining, 2.10^5 cells were incubated at room temperature for 45 min with phycoerythrin-labeled γδ TCR tetramers at a concentration of TCR of 30 μg/ml in PBS plus 1% BSA. Background staining was determined using phycoerytlrin-labeled streptavidin at the same concentration.

Raji cells = experiment: 125I-labelled free apoA-I binding assay on Raji cells; parameters: species or system human; settings: 2 hours at 4° C.
Experimental: (§1) (e): ^125I-labelled free apoA-I binding was measured after 2 hours incubation at 4° C. on Daudi and Raji cells. Top and bottom panels: binding isotherm of ^125I-labeled free apoA-I to Daudi (top) and Raji (bottom) cells. (◯): total binding, (σ): non-specific binding; (●): specific binding. Middle panel: Scatchard representation of specific binding on Daudi cells.
(§2) The binding experiments were performed at 4° C. for 2 hours as previously described (Barbaras et al., 1994). Briefly, cells (9 μg of cell proteins per point) were incubated in PBS for 2 hours at 4° C. with increasing concentrations of labeled apoA-I. Cells were filtered on 0.22 μm filters (GVWP Millipore-France) and washed four times with 1% BSA in PBS. Filters were used for radioactivity measurements. Non-specific binding was determined in the presence of a 100-fold excess (as compared to the KD value) of the corresponding unlabeled ligand. Binding was analyzed using a weighted non-linear curve-fitting program, based on the LIGAND analysis program (Prism-GraphPad).

Daudi cells [1] = experiment: 125I-labelled free apoA-I binding assay on Daudi cells (Scatchard); parameters: species or system human; settings: 2 hours at 4° C.; single binding receptor; read-out: KD of binding to Daudi cells (Scatchard analysis)
Experimental: as §1, §2

Vγ9Vδ2 T cells = experiment: TNFα secretion by T cell clones stimulated with protein-coated latex beads; assay type: cell-based, human; settings: serum-free (sfm)
Excerpt: FIG. 6: Induction of Vγ9Vδ2 T cell lymphokine secretion by immobilized ATP-synthase. HDL-derived apoA-I and ATP synthase were immobilized on latex beads and these were used to stimulate T cell populations. none: no stimulation; empty: beads saturated with BSA; apoA-I: beads coated with apoA-I only. AS: beads coated with the F1 extra-membrane subunit of bovine ATP synthase. AS/apoA-I: beads coated with both protein preparations.
[…] The capacity of γδ clones G25, G115, 73R9 to secrete significant amounts of TNFα upon stimulation was checked by using Daudi cells as target cells as well as PMA/ionomycin or PHA. The αβ clone A4.19 secretes saturating quantities of TNFα upon PMA/ionomycin or PHA stimulation (not shown). […]
2 h- ^51Cr-release assays were performed in standard conditions except for the use of serum-free conditions in some experiments: in sensitization experiments with apolipoprotein preparations, target tumor cells were serum-deprived as described for facs analysis, loaded with ^51Cr (100 μCi/10^6 cells, 1 hour, 37° C.), extensively washed in RPMI and resuspended in sfm medium. […] Specific lysis was calculated as the percentage of maximum release. […] IFNγ was titrated by a specific Elisa technique, whereas TNFα concentration was assessed by a biological assay based on WEHI cells viability. […]

immobilized Vγ9Vδ2TCR = experiment: SPR: purified apolipoprotein binding to immobilized Vγ9Vδ2TCR; parameters: species or system human; settings: soluble proteins injected at 100 μg/ml; immobilized TCR 335 RU
Excerpt: FIG. 7. Surface plasmon resonance analysis. Soluble proteins were exposed to the sensorchip surface for 240 s (association phase) followed by a 240-s flow running (dissociation phase). Immobilized proteins were on sensorchips flowcell 2. Sensorgrams are representative of specific interactions (differential response) where non-specific binding that occurred on flow cell 1 (with no protein immobilized) was deduced from binding that occurred on flow cell 2. Results are expressed as resonance units (RU) as a function of time in seconds.
(c) Comparative sensorgrams of purified apoA-I (full line) and apoA-II (dotted line) binding to immobilized Vγ9Vδ2TCR (proteins were injected at 100 μg/ml). Amount of immobilized TCRγδ protein was 335 RU on flow cell 2.
ApoA-I and ATP synthase (F1 subunit) were immobilized by amine linkage on CM5 chips (Biacore AB) following NHS-EDC activation; Vγ9Vδ2-biotinylated soluble TCRs were immobilized on SA streptavidin-coated chips (Biacore AB) and binding was analyzed in a Biacore 3000 apparatus (BiacoreAB). Soluble ligands were injected at a flow rate of 20 μl/min, exposed to the surface for 240 s (association phase) followed by a 240-s flow running during which the dissociation occurred. […] Results are expressed as resonance units (RU) as a function of time in seconds.

[2] = target: single binding receptor for apoA-I on Daudi cells; experiment: Scatchard analysis of 125I-labelled free apoA-I binding to Daudi cells, 2 h at 4° C.
[3] = target: purified bovine ATP synthase (F1 subunit) (bovine) (UniProt P19483); experiment: SPR (Biacore 3000), ATP synthase (F1) immobilized (22440 RU), TCR injected at 0.5 to 4 µM
[4] = target: human lipid-free apoA-I prepared from high density lipoprotein particles (HDL-apoA-I) (human) (UniProt P02647); experiment: SPR (Biacore 3000), apoA-I immobilized (2260 RU), TCR injected at 125 nM to 2 µM
Sequence of UniProt P02647 (P02647 25-267 limits assumed): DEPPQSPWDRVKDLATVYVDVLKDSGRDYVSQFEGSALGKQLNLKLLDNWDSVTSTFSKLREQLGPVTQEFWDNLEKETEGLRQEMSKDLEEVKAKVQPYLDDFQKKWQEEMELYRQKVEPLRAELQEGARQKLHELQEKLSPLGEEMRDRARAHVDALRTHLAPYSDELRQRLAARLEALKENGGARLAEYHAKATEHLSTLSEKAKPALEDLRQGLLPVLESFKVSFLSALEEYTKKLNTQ

Daudi cells [5] = experiment: 51Cr release assay of Daudi cytolysis by effector T cell clones in serum-free medium; assay type: cell-based, human; settings: serum-depleted targets
Experimental: FIG. 2: ApoA-I-dependent activation of Vγ9Vδ2 T cells. ^51Cr release assays were performed in serum-free medium (sfm) to assess dependance on serum and apoA-I of Daudi cytolysis by different effector T cell populations. G25 and G42: Vγ9Vδ2 T cell clones, 73R9: Vγ8Vδ3 T cell clone. M5L (bovine serum component immunopurified with M5 antibody) was tested at the indicated concentration for its ability to substitute for serum (fcs). Recombinant annexin V was used as a control purified protein.
2 h- ^51Cr-release assays were performed in standard conditions except for the use of serum-free conditions in some experiments: in sensitization experiments with apolipoprotein preparations, target tumor cells were serum-deprived as described for facs analysis, loaded with ^51Cr (100 μCi/10^6 cells, 1 hour, 37° C.), extensively washed in RPMI and resuspended in sfm medium. Effector T cells cultivated in serum-containing medium were washed extensively in RPMI, incubated for 2 hours in sfm at 37° C. and resuspended in sfm medium. […] Specific lysis was calculated as the percentage of maximum release. […] IFNγ was titrated by a specific Elisa technique, whereas TNFα concentration was assessed by a biological assay based on WEHI cells viability.

Molecule: apoA-II: purified apolipoprotein A-II, control of hydrophobicity similar to that of apoA-I [reference compound]
effect on Vγ9Vδ2 TCR tetramer binding to K562 (K562 cells): did not enhance

Molecule: hM5L: human serum ligand of M5 mAb, immunopurified; identity to apoA-I confirmed
effect on Vγ9Vδ2 TCR tetramer binding to K562 (K562 cells): increased

B1: M5L: bovine serum component immunopurified with M5 antibody, ~28 kDa, identified as apolipoprotein A-I (protein, UniProt P15497 25-265, looked up)
Apolipoprotein A-I: DDPQSSWDRVKDFATVYVEAIKDSGRDYVAQFEASALGKQLNLKLLDNWDTLASTLSKVREQLGPVTQEFWDNLEKETASLRQEMHKDLEEVKQKVQPYLDEFQKKWHEEVEIYRQKVAPLGEEFREGARQKVQELQDKLSPLAQELRDRARAHVETLRQQLAPYSDDLRQRLTARLEALKEGGGSLAEYHAKASEQLKALGEKAKPVLEDLRQGLLPVLESLKVSILAAIDEASKKLNAQ
effect on Daudi cell lysis by control Vγ8Vδ3 T cell clone (#73R9) (Daudi cells [5]): neither affected by serum deprivation nor by addition of M5L
effect on Vγ9Vδ2 T cell-mediated lysis of Daudi cells (Daudi cells [5]; Vγ9Vδ2 clones G25, G42): increased Vγ9Vδ2 T cell-mediated lysis in a dose-dependent manner

Further lines, with some results ahead:

interaction with immobilized G115 TCR (immobilized Vγ9Vδ2TCR): specifically interacted
Molecule: apolipoprotein A-I [apoA-I]
specific binding on Raji cells (Raji cells): absence of specific binding
effect on Vγ9Vδ2 TCR tetramer binding to K562 (K562 cells): increased
effect on binding of Vγ8Vδ3 TCR tetramers to K562 (K562 cells): neither serum, nor apoA-I, affected the binding
Kd (Daudi cells [1]): 80 nM
stimulatory activity on Vγ9Vδ2 T cells in serum-free conditions (Vγ9Vδ2 T cells): relatively minor increase

Kd [2]: 80 nM
Molecule: human lipid-free apoA-I prepared from high density lipoprotein particles (HDL-apoA-I) (from UniProt P02647 25-267) (ligand)

Kd [3]: 1510 nM
koff [3]: 0.00254 s⁻¹
kon [3]: 1680 M⁻¹ s⁻¹
Kd [4]: 810 nM
koff [4]: 0.00713 s⁻¹
kon [4]: 8800 M⁻¹ s⁻¹
Molecule: soluble monomeric G115 TCR (Vγ9Vδ2)

Reference: patent publication US20060246520A1, “Gamma delta t cell-mediated therapy” (INSTITUT NATIONAL DE LA SANTE ET DE LA RECHERCHE MEDICALE, priority 2003, published 2006)
